# US20150110786A1 (YEDA RESEARCH AND DEVELOPMENT, published 2015)
# T1: Recombinant human QSOX1 (HsQSOX1 33-546) (human, UniProt O00391 33-546, bound FAD cofactor)
# T1 construct: also called full-length HsQSOX1; rQSOX1
# T1 sequence: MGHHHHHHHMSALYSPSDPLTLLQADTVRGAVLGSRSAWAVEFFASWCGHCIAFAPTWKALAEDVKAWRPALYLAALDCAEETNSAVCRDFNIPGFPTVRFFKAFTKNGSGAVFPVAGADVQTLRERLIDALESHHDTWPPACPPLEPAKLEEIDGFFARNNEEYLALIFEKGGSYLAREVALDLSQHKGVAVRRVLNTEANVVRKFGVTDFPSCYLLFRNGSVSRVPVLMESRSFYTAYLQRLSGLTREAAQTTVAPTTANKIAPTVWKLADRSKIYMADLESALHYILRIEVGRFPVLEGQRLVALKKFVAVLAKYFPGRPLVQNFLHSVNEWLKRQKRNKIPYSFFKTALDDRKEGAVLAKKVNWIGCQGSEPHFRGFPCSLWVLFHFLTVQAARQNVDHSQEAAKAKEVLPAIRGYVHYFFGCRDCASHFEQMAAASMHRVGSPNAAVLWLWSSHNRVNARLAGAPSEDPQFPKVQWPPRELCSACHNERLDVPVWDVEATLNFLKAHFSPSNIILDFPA
# T2: HsQSOX1Erv (carboxy-terminal fragment of human QSOX1, psi-Erv and Erv domains) (human, UniProt O00391 286-546, limits assumed, bound FAD cofactor)
# T2 construct: domain: carboxy-terminal fragment, HsQSOX1Erv (two Erv-fold domains); also called HsQSOX1 carboxy-terminal fragment
# T2 sequence (looked up): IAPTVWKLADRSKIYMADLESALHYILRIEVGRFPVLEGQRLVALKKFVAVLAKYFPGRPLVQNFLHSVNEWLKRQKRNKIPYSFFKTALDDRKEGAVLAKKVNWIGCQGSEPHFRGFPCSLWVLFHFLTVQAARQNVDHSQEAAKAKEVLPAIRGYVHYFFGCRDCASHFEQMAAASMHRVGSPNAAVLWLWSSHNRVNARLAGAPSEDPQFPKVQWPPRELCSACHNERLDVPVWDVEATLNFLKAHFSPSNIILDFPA
# Assays:
# [1] = target: T1, Recombinant human QSOX1 (HsQSOX1 33-546); assay: oxygen consumption assay, 25 nM HsQSOX1, 1-250 nM MAb492.1, 200 µM DTT, fit to a tight-binding inhibitor model
# Experimental: A Clarke-type oxygen electrode (Hansatech Instruments) was used to monitor changes in dissolved oxygen concentrations as a measure of HsQSOX1 activity. […] Reactions were started by injection of dithiothreitol (DTT) to a concentration of 200 μM in the electrode reaction chamber. […] The ratios of the initial rates of HsQSOX1 in the presence and absence of inhibitor were plotted as a function of inhibitor concentration.
# This assay allows direct determination of initial velocities and not just degree of activity.
# [2] = target: T2, HsQSOX1Erv (carboxy-terminal fragment …); assay: ELISA
# [3] = target: T1, Recombinant human QSOX1 (HsQSOX1 33-546); assay: cell-based or functional assay
# [4] = target: T1, Recombinant human QSOX1 (HsQSOX1 33-546); assay: calculated from the IC50 of the rdRNase oxidation colorimetric assay with the equation for competitive inhibition
# Experimental: Reactions of 100 μL volume were conducted in 96 well plates (Nunc). Reduced and denatured RNaseA (Sigma) was used as a model substrate and was prepared as follows. Ten mg RNase was dissolved in 1 ml of 20 mM phosphate buffer, pH 6.5, 6 M GuHCl, and 100 mM DTT, and incubated at 37° C. for 1 hr. The protein was desalted on a PD-10 column (GE Healthcare) equilibrated with DDW, and its thiol content was determined by DTNB absorbance at 412 nm. 50 nM recombinant HsQSOX1 and various concentrations of monoclonal antibody clones were incubated for 30 min at RT. Reactions were initiated with the addition of 200 μM RNase thiols and were quenched after 25 min with 1 mM DTNB. Absorbance was measured at 405 nm in a microplate reader.
Binder,Ki [1] [nM],binding result [2],"IC50, inhibition of rdRNase oxidation (DTNB colorimetric assay), 50 nM HsQSOX1 [3] [nM]","IC50, inhibition of rdRNase oxidation (DTNB colorimetric assay), 250 nM HsQSOX1 [3] [nM]",Ki [4] [nM]
"MAb492.1 (antibody, V domains shown, also called anti-QSOX1 monoclonal antibody; QSOX1-specific monoclonal antibody) VH: QVQLKQSGPGLVAPSQSLSITCTVSGFSLTGYGVNWVRQSPGKGLEWLGMIWGDGRTDYKSALKSRLSITKDNSKSQVFLKMNSLQTDDTARYFCASDYYGSGSFAYWGQGTLVTVSA VL: DVVMTQTHKFMSTSVGDRVSITCKASQDVSTAVAWYQQKSGQSPKLLIHSASYRYTGVPDRFTGSGSGTDFTFTISSVQAEDLAVYYCQQHYSIPLTFGAGTKLELK",1,no binding,60,240,–
"scFv492.1 (scFv, also called single chain antibody fragment of MAb492.1; not shown: thrombin-cleavable His6-tag at the amino terminus) scFv: QVQLKQSGPGLVAPSQSLSITCTVSGFSLTGYGVNWVRQSPGKGLEWLGMIWGDGRTDYKSALKSRLSITKDNSKSQVFLKMNSLQTDDTARYFCASDYYGSGSFAYWGQGTLVTVSAGGGGSGGGGSGGGGSDVVMTQTHKFMSTSVGDRVSITCKASQDVSTAVAWYQQKSGQSPKLLIHSASYRYTGVPDRFTGSGSGTDFTFTISSVQAEDLAVYYCQQHYSIPLTFGAGTKLELK",–,–,250,–,130
"Fab492.1 (Fab fragment of MAb492.1) (Fab, V domains shown) VH: QVQLKQSGPGLVAPSQSLSITCTVSGFSLTGYGVNWVRQSPGKGLEWLGMIWGDGRTDYKSALKSRLSITKDNSKSQVFLKMNSLQTDDTARYFCASDYYGSGSFAYWGQGTLVTVSA VL: DVVMTQTHKFMSTSVGDRVSITCKASQDVSTAVAWYQQKSGQSPKLLIHSASYRYTGVPDRFTGSGSGTDFTFTISSVQAEDLAVYYCQQHYSIPLTFGAGTKLELK",–,–,100,–,–
